The text below walks through data of PMC8102066, “Differences in interactions between transmembrane domains tune the activation of metabotropic glutamate receptors” (eLife, 2021).

One test deals with SNAP-mGluR2-TMD-I779W. The test can be described thus: SiMPull. The settings on record: SNAP-tagged constructs labeled with LD555; 6 movies; parent: est. 80; read off a plot.
The next test has as its target HA-SNAP-mGluR2-TMD (rat). Nature of the test: single-molecule pulldown (SiMPull) with photobleaching step counting; HEK 293T cells surface-labelled with BG-LD555, lysed in 1.2% IGEPAL, diluted in 0.1% IGEPAL buffer; HA-SNAP constructs captured by biotinylated anti-HA antibody on NeutrAvidin/PEG slides; TIRF; percent dimerization = two-step bleaching min-max normalised (5% background, 55% for full-length mGluR2); in some experiments saturating ligands (TASP, MNI 137, glutamate, LY34) kept from cell dissociation on.

A further test deals with SNAP-mGluR3-TMD-F690A. Nature of the test: SiMPull. The settings on record: SNAP-tagged constructs labeled with LD555; 6 movies; parent: est. 46; read off a plot.
For another test, the target named is SNAP-mGluR3-TMD-3xTM4_W. The test can be described thus: SiMPull. The settings on record: SNAP-tagged constructs labeled with LD555; 6 movies; parent: est. 46; read off a plot.
For a further test, the target named is SNAP-mGluR3-TMD-G694A. Nature of the test: SiMPull. The conditions noted are these: SNAP-tagged constructs labeled with LD555; 6 movies; parent: est. 46; read off a plot.
Another test deals with SNAP-mGluR2-TMD-P778A. Nature of the test: SiMPull. The conditions noted are these: SNAP-tagged constructs labeled with LD555; 6 movies; parent: est. 80; read off a plot.
For a further test, the target named is SNAP-mGluR3-TMD-I788A. The test can be described thus: SiMPull. The settings on record: SNAP-tagged constructs labeled with LD555; 6 movies; parent: est. 50; read off a plot.
The next test concerns the target HA-SNAP-mGluR3-TMD (rat). The test can be described thus: single-molecule pulldown (SiMPull) with photobleaching step counting; HEK 293T cells surface-labelled with BG-LD555, lysed in 1.2% IGEPAL, diluted in 0.1% IGEPAL buffer; HA-SNAP constructs captured by biotinylated anti-HA antibody on NeutrAvidin/PEG slides; TIRF; percent dimerization = two-step bleaching min-max normalised (5% background, 55% for full-length mGluR2); in some experiments saturating ligands (TASP, MNI 137, glutamate, LY34) kept from cell dissociation on.

Test [1] deals with SNAP-mGluR2-TMD-P778A-I779A. Nature of the test: SiMPull. The settings on record: SNAP-tagged constructs labeled with LD555; 6 movies; parent: est. 80; read off a plot.
The next test has as its target SNAP-mGluR2-TMD-3xTM4_W. Nature of the test: SiMPull. The conditions noted are these: SNAP-tagged constructs labeled with LD555; 9 movies; parent: est. 83; read off a plot.
In another test the target is SNAP-mGluR3-TMD-S686A. Nature of the test: SiMPull. The conditions noted are these: SNAP-tagged constructs labeled with LD555; 6 movies; parent: est. 46; read off a plot.
The target in test [2] is SNAP-mGluR2-TMD-I779A. The test can be described thus: SiMPull. The conditions noted are these: SNAP-tagged constructs labeled with LD555; 6 movies; parent: est. 80; read off a plot.
Test [3] addresses SNAP-mGluR2-TMD-I779A. The test can be described thus: SiMPull. The conditions noted are these: SNAP-tagged constructs labeled with LD555; 6 movies; parent: est. 80; read off a plot. The source holds these as a separate data set.

HA-SNAP-mGluR3-TMD (domain or fragment), sequence (P31422 23-879): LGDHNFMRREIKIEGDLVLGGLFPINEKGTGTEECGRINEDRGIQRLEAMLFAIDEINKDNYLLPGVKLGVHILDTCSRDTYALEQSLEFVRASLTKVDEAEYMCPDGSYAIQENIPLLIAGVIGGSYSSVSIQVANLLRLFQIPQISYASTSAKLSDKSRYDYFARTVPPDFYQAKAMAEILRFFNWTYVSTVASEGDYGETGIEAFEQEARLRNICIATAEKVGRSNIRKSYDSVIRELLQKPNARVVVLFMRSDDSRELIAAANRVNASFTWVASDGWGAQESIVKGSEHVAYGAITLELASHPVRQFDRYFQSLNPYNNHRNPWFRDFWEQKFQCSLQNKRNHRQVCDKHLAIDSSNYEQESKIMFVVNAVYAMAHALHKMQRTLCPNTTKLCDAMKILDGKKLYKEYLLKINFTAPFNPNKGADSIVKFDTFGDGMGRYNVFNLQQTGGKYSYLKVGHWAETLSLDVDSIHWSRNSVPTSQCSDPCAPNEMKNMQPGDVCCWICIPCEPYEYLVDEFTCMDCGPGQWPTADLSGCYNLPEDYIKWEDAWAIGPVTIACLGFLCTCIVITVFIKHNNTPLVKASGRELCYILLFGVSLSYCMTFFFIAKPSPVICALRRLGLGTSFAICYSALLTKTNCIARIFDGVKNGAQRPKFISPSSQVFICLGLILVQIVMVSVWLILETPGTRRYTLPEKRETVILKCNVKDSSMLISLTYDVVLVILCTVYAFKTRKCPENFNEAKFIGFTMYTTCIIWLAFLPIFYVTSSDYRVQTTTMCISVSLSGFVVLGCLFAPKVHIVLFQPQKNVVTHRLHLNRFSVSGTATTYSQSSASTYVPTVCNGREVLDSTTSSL
HA-SNAP-mGluR2-TMD (domain or fragment), sequence (P31421 19-872): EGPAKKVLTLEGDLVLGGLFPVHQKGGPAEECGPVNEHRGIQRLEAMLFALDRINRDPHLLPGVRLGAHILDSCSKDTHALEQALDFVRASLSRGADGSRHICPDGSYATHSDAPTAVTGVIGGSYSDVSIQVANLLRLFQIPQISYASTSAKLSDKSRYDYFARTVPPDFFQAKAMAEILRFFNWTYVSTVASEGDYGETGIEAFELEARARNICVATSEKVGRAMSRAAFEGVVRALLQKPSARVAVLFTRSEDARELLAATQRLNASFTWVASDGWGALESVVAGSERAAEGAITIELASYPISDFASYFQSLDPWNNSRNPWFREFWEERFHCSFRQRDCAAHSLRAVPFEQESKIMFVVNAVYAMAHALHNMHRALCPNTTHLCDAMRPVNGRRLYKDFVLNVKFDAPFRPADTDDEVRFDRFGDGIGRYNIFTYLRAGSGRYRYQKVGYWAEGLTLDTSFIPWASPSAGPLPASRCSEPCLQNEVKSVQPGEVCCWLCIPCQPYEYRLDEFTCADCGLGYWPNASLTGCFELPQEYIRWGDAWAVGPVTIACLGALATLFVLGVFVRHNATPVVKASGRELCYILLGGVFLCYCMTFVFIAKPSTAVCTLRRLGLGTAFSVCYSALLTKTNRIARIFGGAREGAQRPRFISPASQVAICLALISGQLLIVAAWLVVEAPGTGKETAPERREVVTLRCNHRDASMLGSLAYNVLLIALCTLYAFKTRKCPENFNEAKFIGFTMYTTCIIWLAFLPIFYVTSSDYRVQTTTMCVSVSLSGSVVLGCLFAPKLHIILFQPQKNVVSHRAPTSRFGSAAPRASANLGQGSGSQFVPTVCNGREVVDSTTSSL

Take HA-SNAP-mGluR2-TMD I779W: the other: percent dimerization with SNAP-mGluR2-TMD-I779W came to 61%.
Regarding HA-SNAP-mGluR2-TMD (domain or fragment), in the test with HA-SNAP-mGluR2-TMD (rat), the percent of spots bleaching in >3 steps worked out at 4.5%, the percent of spots bleaching in one step was 54.1% and the percent of spots bleaching in two steps came to 41.4%.
HA-SNAP-mGluR3-TMD F690A: in the test with SNAP-mGluR3-TMD-F690A, the other: percent dimerization was 64%.
Consider HA-SNAP-mGluR3-TMD S686W; F690W; G684W, for which the other: percent dimerization in the test with SNAP-mGluR3-TMD-3xTM4_W was 45%.
With HA-SNAP-mGluR3-TMD G694A, the other: percent dimerization with SNAP-mGluR3-TMD-G694A is 62%.
Consider HA-SNAP-mGluR2-TMD P778A, for which, in the test with SNAP-mGluR2-TMD-P778A, the other: percent dimerization was found to be 64%.
Regarding HA-SNAP-mGluR3-TMD I788A, the other: percent dimerization with SNAP-mGluR3-TMD-I788A was found to be 38%.
In the test with HA-SNAP-mGluR3-TMD (rat), HA-SNAP-mGluR3-TMD (domain or fragment) gave a percent of spots bleaching in >3 steps of 2.9%, a percent of spots bleaching in one step of 69.1% and a percent of spots bleaching in two steps of 27.9%.
As to HA-SNAP-mGluR2-TMD P778A; I779A, the other: percent dimerization in test [1] came out at 57%.
Take HA-SNAP-mGluR2-TMD A677W; A681W; A685W: in the test with SNAP-mGluR2-TMD-3xTM4_W, the other: percent dimerization is 39%.
Take HA-SNAP-mGluR3-TMD S686A: in the test with SNAP-mGluR3-TMD-S686A, the other: percent dimerization came to 72%.
For the substance HA-SNAP-mGluR2-TMD I779A, the other: percent dimerization with SNAP-mGluR2-TMD-I779A [2] and with SNAP-mGluR2-TMD-I779A [3] was 57% each time.
